Laboratory results published in publication PMC5096884.

Target: Not1-3HA (UniProt P25655)
Experiment: co-immunoprecipitation (TAP pull-down on IgG-coupled magnetic beads), Western blot quantification
Details: cells in exponential growth phase; n=5 biological replicates; parent: est. 1.0; read off a plot

Chain of UniProt P25655 (P25655 whole entry): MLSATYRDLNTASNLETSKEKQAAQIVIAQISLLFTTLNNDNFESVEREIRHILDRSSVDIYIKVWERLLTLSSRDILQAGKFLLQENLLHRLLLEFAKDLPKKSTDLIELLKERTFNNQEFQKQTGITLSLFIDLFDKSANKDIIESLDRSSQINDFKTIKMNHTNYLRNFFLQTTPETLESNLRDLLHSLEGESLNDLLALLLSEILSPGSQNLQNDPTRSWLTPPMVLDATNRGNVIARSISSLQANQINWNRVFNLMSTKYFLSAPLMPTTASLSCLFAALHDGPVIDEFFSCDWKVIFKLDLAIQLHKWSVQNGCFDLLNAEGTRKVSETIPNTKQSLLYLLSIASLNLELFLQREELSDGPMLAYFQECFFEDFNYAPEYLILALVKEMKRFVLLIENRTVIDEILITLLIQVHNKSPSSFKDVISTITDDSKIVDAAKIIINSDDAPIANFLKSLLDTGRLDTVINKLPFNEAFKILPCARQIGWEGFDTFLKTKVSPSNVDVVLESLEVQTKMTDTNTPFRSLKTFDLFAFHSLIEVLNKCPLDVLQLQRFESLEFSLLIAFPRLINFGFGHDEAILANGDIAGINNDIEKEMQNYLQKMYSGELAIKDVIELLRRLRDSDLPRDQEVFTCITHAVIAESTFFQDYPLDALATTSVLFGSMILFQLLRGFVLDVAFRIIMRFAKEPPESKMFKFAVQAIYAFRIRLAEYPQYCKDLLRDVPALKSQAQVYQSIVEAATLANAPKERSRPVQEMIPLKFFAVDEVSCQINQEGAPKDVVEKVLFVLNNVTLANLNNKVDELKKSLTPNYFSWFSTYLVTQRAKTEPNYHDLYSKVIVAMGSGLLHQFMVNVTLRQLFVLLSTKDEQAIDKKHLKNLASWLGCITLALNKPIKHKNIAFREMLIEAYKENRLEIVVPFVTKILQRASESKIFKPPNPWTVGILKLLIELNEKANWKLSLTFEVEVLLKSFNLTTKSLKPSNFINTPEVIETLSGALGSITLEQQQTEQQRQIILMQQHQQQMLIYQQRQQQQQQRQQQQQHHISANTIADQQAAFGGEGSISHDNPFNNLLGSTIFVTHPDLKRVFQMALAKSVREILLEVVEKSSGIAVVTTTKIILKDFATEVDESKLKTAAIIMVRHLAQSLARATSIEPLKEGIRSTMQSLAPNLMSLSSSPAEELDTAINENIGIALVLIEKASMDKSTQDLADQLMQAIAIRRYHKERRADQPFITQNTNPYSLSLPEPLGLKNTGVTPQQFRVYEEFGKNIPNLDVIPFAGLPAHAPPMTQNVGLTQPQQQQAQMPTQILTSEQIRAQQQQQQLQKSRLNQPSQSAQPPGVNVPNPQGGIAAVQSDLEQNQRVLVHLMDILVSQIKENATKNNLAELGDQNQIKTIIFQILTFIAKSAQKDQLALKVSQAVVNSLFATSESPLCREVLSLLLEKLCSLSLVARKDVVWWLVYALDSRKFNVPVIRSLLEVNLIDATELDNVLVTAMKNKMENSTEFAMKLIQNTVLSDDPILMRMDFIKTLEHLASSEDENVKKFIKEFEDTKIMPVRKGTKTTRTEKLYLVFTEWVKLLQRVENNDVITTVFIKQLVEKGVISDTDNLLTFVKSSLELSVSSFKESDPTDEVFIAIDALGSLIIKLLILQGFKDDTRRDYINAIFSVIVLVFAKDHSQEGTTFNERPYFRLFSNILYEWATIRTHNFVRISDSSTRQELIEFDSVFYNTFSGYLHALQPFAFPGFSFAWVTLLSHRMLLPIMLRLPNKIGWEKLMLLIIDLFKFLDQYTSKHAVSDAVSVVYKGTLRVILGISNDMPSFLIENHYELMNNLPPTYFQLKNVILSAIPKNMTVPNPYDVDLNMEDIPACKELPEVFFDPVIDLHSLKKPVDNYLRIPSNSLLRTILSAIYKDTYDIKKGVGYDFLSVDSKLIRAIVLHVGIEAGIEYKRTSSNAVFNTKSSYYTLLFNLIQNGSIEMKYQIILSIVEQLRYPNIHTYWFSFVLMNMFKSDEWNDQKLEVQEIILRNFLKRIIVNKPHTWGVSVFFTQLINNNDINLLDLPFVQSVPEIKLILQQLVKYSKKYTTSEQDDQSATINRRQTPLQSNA

## TAP-tagged Dhh1 (from UniProt P39517) R55E; F62E; Q282E; N284E; R355E
  ratio to parent: 0.44
